The experiment addresses LecB-biotin (Pseudomonas aeruginosa lectin LecB, biotinylated) (Pseudomonas aeruginosa) (UniProt Q9HYN5). Put plainly: pull-down; LecB-biotin applied basolaterally to polarized filter-grown MDCK cells; cells lysed; LecB-biotin-receptor complexes precipitated with streptavidin beads; β1-integrin probed by Western blot in precipitate and supernatant.

“β1-integrin (glycosylated, endogenous in MDCK cells) (receptor)”: the percent of total β1-integrin extracted was determined as 75%.

These data come from paper PMC7064779.
